Measured values taken from PMC2704394 (2009).

B1: full length S. pombe Pik1, wild type [S. pombe] / purified Cdc4 protein [S. pombe] (parent complex)
chain 1: MPSSNSGNELLLRFFESAHFTSQLCVAYLSRYPNNIGIHHFLCEKLATFPYEEIEFFIPQLIHLVLNKDSESVALEEFIISQCEQNTQCALITFWYLQAHMVDLGLQPHSSCFKICKRLYNRIQILVFMSSSSLIQSQQKISENVTPALILSGIMLGGVCVPELLKKAGPIAIAQGRKAPRQDPDESDVDVLRRLSTEPRYSLDVLRSSLNNSIVEQHSEVSLRLKAPELTRTHSYQSSATLSIDEQRRVLRSNYFQQEIQFLFALQDISIRLIIVPRQARLSSLRAELALLNNNLPADVNIPLLRSYHKEVSHKIVRIDPKEATILNSAERVPYLIMVEVLSGELSFEPQSKKNKAKVQKIVSHKNQRKRWFDLTDVDPYTNLQDSTDNDISESESEGGDLSMSPLIKGLVPDTLSLSKSFSSFGNVSLQVPSSHRDTDVVLLSGRHSDSDGNGALKRSKIYASEITARMRAAATMLSQLDAEGSRRPKAETERIKNSIILDMQRLEEERLNEPSIYPVSVDISCAEDLRFGKETQKAERKGDRDDPSAATFQEDWYAKKERIRKSSPYGHYPNWDLVSVIVKTGADLRQETFACQLIYAFQRVWLECKEKVWVRRMKILVTGDNSGLIETITNAISVHSIKKNLTKQLREAELAQGKIAGKNVVTLKDYFIKQFGDPNSSRYRQAQTNFLQSLVAYSIISYLLQLKDRHNGNVLIDSEGHIIHIDFGFLLTNTPGNVGFESAPFKLTADYLEILDDRFDEYRSLMKAAFKSVRKNADQIILLVEVMQNNSTMPCFRAGENTSAQLLQRFQLQLGDKECDDFVDLLIQKANCSVWTRLYDLFQNITNGIY
chain 2: MSTDDSPYKQAFSLFDRHGTGRIPKTSIGDLLRACGQNPTLAEITEIESTLPAEVDMEQFLQVLNRPNGFDMPGDPEEFVKGFQVFDKDATGMIGVGELRYVLTSLGEKLSNEEMDELLKGVPVKDGMVNYHDFVQMILAN

Variants of: B1
Test: sandwich ELISA; about 56 µg lysate protein (highest point of 2-fold serial dilution); cells grown in the absence of thiamine; Cdc4-coated wells; parent: 0.27; read off a plot

Variant	response
chain 1 R838A	~0.027 Absorbance
